acyl = not defined here
Target: calmodulin (recombinant rat CaM) (rat, UniProt P0DP29 2-149)
Assay: NMR titration

Binder: acyl-SSKGTKKFRLEGTLLRTYVCHIIFKT-NH2 (reading uncertain) [Cx50p^141–166 (connexin50 CaM-binding domain peptide, residues 141–166)]
- stoichiometry N: 1

— paper PMC3351833 (Biochemical Journal, 2011)
